Tested on: CC(=O)Oc1ccc([N+](=O)[O-])cc1
Test: purified protein
Details: 50 mM Tris-HCl pH 8.0, room temperature, substrate 0.0015-3.0 mM

EstRag (Lysinibacillus sp. YS11)
Km: 0.031 mM
kcat: 20.4 s⁻¹
kcat/Km: 658000 M⁻¹ s⁻¹

Source: publication PMC9452428, “Molecular study on recombinant cold-adapted, detergent- and alkali stable esterase (EstRag) from Lysinibacillus sp.: a member of family VI” (World Journal of Microbiology & Biotechnology, 2022)
